Results: PMC3572911 (Biochemistry, 2013)

Molecular target: the molecule itself
Experiment: crystal structure

B1: human liver pyruvate kinase (L-PYK) with the S12D mimic of phosphorylation (enzyme)
chain: not shown
modifications: Cys436 partially oxidized to the sulfenic derivative (sulfenic acid)
stoichiometry N: 4
